{
  "source": "patent US20250277031A1",
  "key": {"[1]": {"molecular_target": "recombinant human CD47 (human) (UniProt Q08722)", "sequence (Q08722 19-139 limits assumed)": "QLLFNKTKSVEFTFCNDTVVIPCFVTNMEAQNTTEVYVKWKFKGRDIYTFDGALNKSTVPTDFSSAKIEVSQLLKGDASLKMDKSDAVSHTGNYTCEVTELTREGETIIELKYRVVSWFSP", "assay": "ELISA, plate coated with recombinant human CD47, OD450"}, "[2]": {"molecular_target": "recombinant human CD47 (human) (UniProt Q08722)", "assay": "ELISA, plate coated with 1 µg/mL recombinant human CD47, OD450"}, "[3]": {"molecular_target": "recombinant human CD47 (human) (UniProt Q08722)", "assay": "SPR, Biacore X100, antibody captured on Protein A chip, CD47 as analyte"}, "[4]": {"molecular_target": "recombinant human CD47 (human) (UniProt Q08722)", "assay": "SPR, Biacore X100, antibody captured on Protein A chip, CD47 as analyte", "remark": "listed apart in the source"}, "[5]": {"molecular_target": "recombinant human CD47-Fc protein (ACROBiosystems, catalog number CD7-H52A5) (human) (UniProt Q08722)", "sequence (Q08722 19-139 limits assumed)": "as above", "assay": "blocking ELISA: plate coated with human CD47-Fc, biotin-labelled SIRPα as the blocked ligand, falling OD450 curve; the sheet labels the half-maximal value EC50"}, "[6]": {"molecular_target": "recombinant human CD47-Fc protein (ACROBiosystems, catalog number CD7-H52A5) (human) (UniProt Q08722)", "assay": "blocking ELISA: plate coated with human CD47-Fc, 2 nM biotin-labelled SIRPα as the blocked ligand, falling OD450 curve; the sheet labels the half-maximal value EC50"}},
  "note": "Where two headings read alike, the source gives them in different places.",
  "data": [
    {"binder": "control CC-90002 (a patent sequence from WO2016109415) (antibody, from another filing, V domains shown) VH: QMQLVQSGAEVKKTGSSVKVSCKASGFNIKDYYLHWVRQAPGQALEWMGWIDPDQGDTEYAQKFQDRVTITRDRSMSTAYMELSSLRSEDTAMYYCNAAYGSSSYPMDYWGQGTTVTV VL: NIQMTQSPSAMSASVGDRVTITCKASQDIHRYLSWFQQKPGKVPKHLIYRANRLVSGVPSRFSGSGSGTEFTLTISSLQPEDFATYYCLQYDEFPYTFGGGTKVEIK", "values": [
      {"measurement": "EC50", "setting": "[1]", "result": 0.033, "unit": "nM"},
      {"measurement": "EC50", "setting": "[2]", "result": 0.058, "unit": "nM"},
      {"measurement": "Kd", "setting": "[3]", "result": 1.16, "unit": "nM"},
      {"measurement": "koff", "setting": "[3]", "result": 0.00176, "unit": "s⁻¹"},
      {"measurement": "kon", "setting": "[3]", "result": "1.52e+06", "unit": "M⁻¹ s⁻¹"},
      {"measurement": "Kd", "setting": "[4]", "result": 0.857, "unit": "nM"},
      {"measurement": "koff", "setting": "[4]", "result": 0.00135, "unit": "s⁻¹"},
      {"measurement": "kon", "setting": "[4]", "result": "1.57e+06", "unit": "M⁻¹ s⁻¹"},
      {"measurement": "IC50", "setting": "[5]", "result": 0.774, "unit": "nM"},
      {"measurement": "IC50", "setting": "[6]", "result": 1.43, "unit": "nM"}
    ]}
  ]
}
